# Data published in patent publication US20210386829A1, “COMPOSITIONS AND METHODS FOR MODULATING CGRP SIGNALING TO REGULATE INNATE LYMPHOID CELL INFLAMMATORY RESPONSES” (The Broad Institute, Inc., priority 2018, published 2021).
# B1: IL-33: alarmin cytokine which activates ILC2s and induces their proliferation; used as stimulus (protein, UniProt Q8BVZ5 1-266, looked up)
# Interleukin-33: MRPRMKYSNSKISPAKFSSTAGEALVPPCKIRRSQQKTKEFCHVYCMRLRSGLTIRKETSYFRKEPTKRYSLKSGTKHEENFSAYPRDSRKRSLLGSIQAFAASVDTLSIQGTSLLTQSPASLSTYNDQSVSFVLENGCYVINVDDSGKDQEQDQVLLRYYESPCPASQSGDGVDGKKLMVNMSPIKDTDIWLHANDKDYSVELQRGDVSPPEQAFFVLHKKSSDFVSFECKNLPGTYIGVKDNQLALVEEKDESCNNIMFKLSKI
# Tests used:
# lung ILCs [1] = test: culture of sort-purified lung ILCs with IL-7, IL-33 or IL-25+NMU with or without CGRP (qPCR, LegendPlex, intracellular cytokine staining); assay type: cell-based, mouse; details: short-term (8 hours) IL-33 alone, no CGRP
# Method: (§1) ILC in vitro culture. For in vitro experiments 5,000 ILCs/well were cultured in a 96 well round bottom plate with 20 ng/ml IL-7 (R&D Systems), 200 ng/ml IL-25 (R&D Systems) or 20 ng/ml, 2 ng/ml or 0.2 ng/ml IL-33 (BioLegend) with or without 1 μg/ml Neuromedin U (US Biological). In some cases purified CD90.2^+ lung cells were first labeled with CellTrace Violet (Thermo Fisher Scientific), then sorted as described above, and cultured for 3 days under the indicated conditions.
# Quantitative real-time PCR. RNA was isolated using RNeasy Plus Mini Kit (Qiagen) and reverse transcribed to cDNA with iScript cDNA Synthesis Kit (Bio-Rad). Gene expression was analyzed by quantitative real-time PCR on a ViiA7 System (Thermo Fisher Scientific) using TaqMan Fast Advanced Master Mix (Thermo Fisher Scientific) with the following primer/probe sets: Il5 (Mm00439646_m1), Il13 (Mm00434204_m1), Il17rb (Mm00444709_m1), Nmur1 (Mm04207994_m1), Nmur2 (Mm00600704_m1), Nmu (Mm00479868_m1) and Actb (Applied Biosystems). Expression values were calculated relative to Actb detected in the same sample by duplex qPCR.
# Cytokine quantification. Cytokine concentrations in BAL fluid, lung and supernatant of in vitro ILC cultures were analyzed by the LegendPlex Mouse Th Cytokine Panel (13-plex) (BioLegend) according to the manufacturer's instructions and analyzed on a FACS Calibur (BD Biosciences).
# Culture of innate lymphoid cells. Sort-purified innate lymphoid cells (ILCs) were cultured under sterile conditions in complete medium in a humidified incubator at 37° C. and 10% CO2. ILCs were plated at a density of 3,000-5,000 ILCs per well in a 96 well round-bottom plate in cell culture medium with 20 ng/ml IL-7. Depending on the experiment, different combinations of 200 ng/ml IL-25, 200 ng/ml IL-33, 1 ug/ml NMU and 100 nM CGRP were added either at start or after overnight culture with 20 ng/ml IL-7. […]
# For flow cytometric analysis, lung cells were transferred into a 96 well V-bottom plate and stained with surface antibodies for 20 min at 4° C. in the dark. Cells were washed twice with DPBS containing 2% fetal bovine serum and transferred into 1.2 ml tubes for analysis by flow cytometry. For intracellular cytokine staining, cells were incubated in complete cell culture medium with 50 ng/ml phorbol 12-myristate 13-acetate (Sigma-Aldrich), 1 uM ionomycin (Sigma-Aldrich) and GolgiStop (Cat #554724; BD Biosciences) in a humidified incubator at 37° C. and 10% CO2. After 5 hours, cells were transferred into 96 well V-bottom plate, stained with Fixable Viability Dye eFluor 506 (Cat #65-0866-14; Thermo Fisher) and surface antibodies for 20 min at 4° C. in the dark and washed twice with DPBS containing 2% fetal bovine serum. Then, cells were incubated with BD Cytofix/Cytoperm Buffer (Cat #51-2090KZ; BD Biosciences) for 20 min, followed by a wash with BD Perm/Wash Buffer (Cat #51-2091KZ; BD Biosciences). Subsequently, cells were incubated with antibodies targeting intracellular proteins diluted in BD Perm/Wash Buffer for 20 min and after two wash steps, transferred into 1.2 ml tubes for analysis by flow cytometry. For ki67 staining, cells were stained for surface antibodies as described above, fixed with a solution of Fixation/Permeabilization Concentrate (Cat #00-5123-43; Invitrogen) and Fixation/Perm Diluent (Cat #00-5223-56; Invitrogen) for 20 min, washed with Permeabilization Buffer (Cat #00-8333-56; Invitrogen). Then, cells were incubated with ki67 antibody diluted in Permeabilization Buffer for 20 min, washed and transferred into FACS tubes. Cells were analyzed on a BD LSRFortessa (BD Biosciences) flow cytometer with 5 lasers (355 nm, 405 nm, 488 nm, 561 nm and 640 nm). Data was analyzed using FlowJo v10.5.0 software and cell populations were gated as described previously (Wallrapp 2017).
# RNA isolation and cDNA synthesis. […]
# lung ILCs [2] = test: CellTrace Violet proliferation assay of sort-purified lung ILCs; assay type: cell-based, mouse; details: 3 days
# Method: as §1
# Proliferation assay. Lung cells were isolated and enriched for CD90.2 cells as described above, followed by labeling with CellTrace Violet (Cat #C34557; Thermo Fisher Scientific) according to manufacturer's instructions and subsequently stained with antibodies. After 3-day culture of sort-purified ILCs with 20 ng/ml IL-7 either alone or in combination with 200 ng/ml IL-33, 100 pM CGRP or 100 nM CGRP followed by staining, expression of CellTrace Violet in live (7AAD−) ILCs was analyzed on a BD LSRFortessa (BD Biosciences).
molecule,measurement,setting,value
B1,frequency of IL-13-positive ILC2s (intracellular cytokine staining),lung ILCs [1],~13%
same,ILC2 proliferation,"lung ILCs [2]; IL-7+IL-33 vs IL-7 alone, absent CGRP",induced significant ILC2 proliferation
same,IL-33-activated ILCs that divided at least once,lung ILCs [2]; IL-7+IL-33 without CGRP,approximately 55%
